The text below walks through data of the Immune Epitope Database (IEDB).

pKd: −log10 of the molar value.

The target in test [1] is HLA-B*51:01. Description: IEDB peptide-MHC binding, purified MHC/competitive/fluorescence; filed as Kd, often an IC50 or EC50 that approximates it; ≥ and ≤ were set here for values at or beyond the usual limits of such assays.
Test [2] addresses HLA-A*02:12. The description is as above.
The target of test [3] is HLA-A*02:03. Described as above.
Test [4] deals with HLA-A*02:01. The description is as above.
Test [5] concerns the target HLA-B*46:01. The test is described as above.
The target of test [6] is HLA-B*57:01. The test is described as above.
Test [7] deals with HLA-A*03:01. The test is described as above.
Test [8] has as its target HLA-A*26:01. The description is as above.
Test [9] concerns the target HLA-B*18:01. Described as above.
For test [10], the target named is HLA-A*02:16. The test is described as above. The settings on record: source organism: Vibrio parahaemolyticus AQ3810.
Test [11] has as its target HLA-A*24:03. The description is as above.
For test [12], the target named is HLA-B*15:17. The description is as above.
In test [13] the target is HLA-B*39:01. The description is as above.
Test [14] addresses HLA-A*29:02. The test is described as above.
Test [15] addresses HLA-A*02:19. The description is as above.
In test [16] the target is HLA-B*15:01. The test is described as above.
For test [17], the target named is HLA-A*23:01. Described as above.
For test [18], the target named is HLA-B*27:03. The description is as above.
Test [19] concerns the target HLA-A*02:11. The experiment in a line: IEDB peptide-MHC binding, purified MHC/direct/fluorescence; filed as Kd, often an IC50 or EC50 that approximates it; ≥ and ≤ were set here for values at or beyond the usual limits of such assays.
The target in test [20] is HLA-A*02:12. The test is described as above.
In test [21] the target is HLA-A*02:03. The test is described as above.
In test [22] the target is HLA-B*07:02. The description is as above.
Test [23] has as its target HLA-A*03:01. The description is as above.
The target in test [24] is HLA-A*02:16. Described as above.
Test [25] has as its target HLA-A*24:03. The description is as above.
For test [26], the target named is HLA-A*68:02. The description is as above.
For test [27], the target named is HLA-A*29:02. Described as above.
Test [28] deals with HLA-A*02:19. The test is described as above.
For test [29], the target named is HLA-A*23:01. The description is as above.
The target in test [30] is HLA-A*69:01. Description: IEDB peptide-MHC binding, purified MHC/competitive/fluorescence; filed as Kd, often an IC50 or EC50 that approximates it; ≥ and ≤ were set here for values at or beyond the usual limits of such assays.
Test [31] addresses HLA-B*15:01. The experiment in a line: IEDB peptide-MHC binding, purified MHC/direct/fluorescence; filed as Kd, often an IC50 or EC50 that approximates it; ≥ and ≤ were set here for values at or beyond the usual limits of such assays. The settings on record: source organism: Sudan ebolavirus - Maleo (1979).
Test [32] concerns the target HLA-A*02:11. The experiment in a line: IEDB peptide-MHC binding, purified MHC/competitive/fluorescence; filed as Kd, often an IC50 or EC50 that approximates it; ≥ and ≤ were set here for values at or beyond the usual limits of such assays. The settings on record: source organism: Vibrio vulnificus CMCP6.
Where [33] appears, read: source organism: Vibrio parahaemolyticus AQ3810.
The mark [34] stands for this setting: source organism: Zaire ebolavirus.
The mark [35] stands for this setting: source organism: Ravn virus - Ravn, Kenya, 1987.
Setting [36] is: source organism: Vibrio vulnificus CMCP6.
The mark [37] stands for this setting: source organism: Reston ebolavirus.

For KVGYFQHGA, the pKd (commonly −log10 of the Kd, conventionally taken in molar units) in test [1] (setting [33]) was no more than 4.70; in test [2] (setting [33]), 6.77; in test [3] (setting [33]), no more than 4.70; in test [4] (setting [33]), no more than 4.70; in test [5] (setting [33]) it was no more than 4.70; in test [6] (setting [33]) it was no more than 4.70. Moreover, the pKd in test [7] (setting [33]), in [8] (setting [33]), in test [9] (setting [33]), in test [10], in test [11] (setting [33]) and in [12] (setting [33]) was no more than 4.70 throughout. The pKd in test [13] (setting [33]), in test [14] (setting [33]), in test [15] (setting [33]), in test [16] (setting [33]), in test [17] (setting [33]) and in test [18] (setting [33]) was no more than 4.70 each time.
As for TPSHYSGNI, the pKd in test [19] (setting [34]) was no more than 4.70; in test [20] (setting [34]) it was no more than 4.70; in test [21] (setting [34]) it was no more than 4.70; in test [22] (source organism: Sudan ebolavirus - Maleo (1979)), 6.35; in test [23] (setting [34]), no more than 4.70; in test [24] (setting [34]) it was no more than 4.70. For the same sequence, the negative logarithm of the Kd (pKd) in test [25] (setting [34]), in test [26] (setting [34]), in test [27] (setting [34]), in test [28] (setting [34]), in test [29] (setting [34]) and in test [1] (setting [34]) was no more than 4.70 each time. Besides, the pKd in test [4] (setting [34]), in [5] (setting [34]), in test [6] (setting [34]), in test [8] (setting [34]), in [9] (setting [34]) and in test [30] (setting [34]) was no more than 4.70 throughout. For the same sequence, the pKd in [12] (setting [34]), in test [13] (setting [34]), in test [16] (setting [34]) and in test [18] (setting [34]) was no more than 4.70 throughout.
With PQVLGGLSF, the pKd in test [19] (setting [35]), in test [20] (setting [35]), in test [21] (setting [35]), in test [23] (setting [35]), in test [24] (setting [35]) and in [25] (setting [35]) was no more than 4.70 each time. For the same sequence, the pKd was no more than 4.70 in test [26] (setting [35]); no more than 4.70 in test [28] (setting [35]); 6.32 in [31]; no more than 4.70 in [29] (setting [35]); no more than 4.70 in test [1] (setting [34]); no more than 4.70 in test [4] (setting [34]). The pKd in [5] (setting [34]), in test [6] (setting [34]), in test [8] (setting [34]), in [9] (setting [34]), in [30] (setting [34]) and in test [12] (setting [34]) was no more than 4.70 in each case. Moreover, the pKd in [13] (setting [34]) and in test [18] (setting [34]) was no more than 4.70 each time.
As to WLAGFEPSE, the pKd in test [1] (setting [36]) was no more than 4.70; in test [32], no more than 4.70; in test [2] (setting [36]), 6.34; in [3] (setting [36]), no more than 4.70; in test [4] (setting [36]), no more than 4.70; in test [5] (setting [36]), no more than 4.70. The pKd in test [6] (setting [36]), in [7] (setting [36]), in test [8] (setting [36]), in [9] (setting [36]), in [11] (setting [36]) and in [13] (setting [36]) was no more than 4.70 in each case. The pKd in test [14] (setting [36]), in [15] (setting [36]), in test [16] (setting [36]), in [17] (setting [36]) and in test [18] (setting [36]) was no more than 4.70 throughout.
Consider LPRERFRKT, for which the pKd is no more than 4.70 in [19] (setting [37]); no more than 4.70 in test [20] (setting [37]); no more than 4.70 in [21] (setting [37]); 6.75 in test [22] (source organism: Tai Forest virus - Cote d'Ivoire, Cote d'Ivoire, 1994); no more than 4.70 in test [23] (setting [37]); no more than 4.70 in test [24] (setting [37]). Also, the pKd in test [25] (setting [37]), in [26] (setting [37]), in test [27] (setting [37]), in [28] (setting [37]), in test [29] (setting [37]) and in test [1] (setting [37]) was no more than 4.70 throughout. Besides, the pKd in test [4] (setting [37]), in test [5] (setting [37]), in test [6] (setting [37]), in [8] (setting [37]), in [9] (setting [37]) and in [30] (setting [37]) was no more than 4.70 throughout. Also, the pKd in [12] (setting [37]), in test [13] (setting [37]), in test [16] (setting [37]) and in test [18] (setting [37]) was no more than 4.70 in each case.
